Source: PMC9970071

Key:
[1] = target: Full-length TBEV C protein (residues 1-96), Kuutsalo-14 strain (tick-borne encephalitis virus (TBEV-Eu), strain Kuutsalo-14); assay: SEC
[2] = target: Truncated TBEV C protein C_(18-93), containing residues 18-93, Kuutsalo-14 strain (tick-borne encephalitis virus (TBEV-Eu), strain Kuutsalo-14); assay: SEC

Full-length TBEV C protein (residues 1-96), Kuutsalo-14 strain (natural protein)
stoichiometry N [1]: 2

Truncated TBEV C protein C_(18-93), containing residues 18-93, Kuutsalo-14 strain (domain or fragment)
stoichiometry N [2]: 2
